Test results taken from article PMC6258031 (Structure (London, England : 1993), 2017).
Substitutions are numbered along the chain they refer to. In names and notes the source's numbering stands. Non-standard residues stand in square brackets, D forms with d. SeMet = C[Se]CC[C@H](N)C(=O)O

T1: ANKS3 SAM F472E (human, UniProt Q6ZW76 421-490, F472E)
T1 sequence (looked up): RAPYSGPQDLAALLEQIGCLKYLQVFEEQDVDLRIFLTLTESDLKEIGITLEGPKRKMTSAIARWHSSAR

T2: Bicc1 SAM F920E (human, UniProt Q9H694 870-939, F920E)
T2 sequence (looked up): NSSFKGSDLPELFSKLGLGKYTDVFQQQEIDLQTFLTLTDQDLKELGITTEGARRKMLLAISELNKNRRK

B1: Bicc1 SAM E898K (domain or fragment, human, UniProt Q9H694 870-939, looked up)
chain: T2 sequence (looked up) with E29K, E51F
B2: Bicc1 SAM R924E (native) (domain or fragment, human, UniProt Q9H694 870-939, looked up)
chain: T2 sequence (looked up) with E51F, R55E
B3: Bicc1 SAM D911K (domain or fragment, human, UniProt Q9H694 870-939, looked up)
chain: T2 sequence (looked up) with D42K, E51F
B4: Bicc1 SAM R924E SeMet (domain or fragment, human, UniProt Q9H694 870-939, looked up)
chain: NSSFKGSDLPELFSKLGLGKYTDVFQQQEIDLQTFLTLTDQDLKELGITTFGAREK[SeMet]LLAISELNKNRRK
B5: ANKS3 SAM I455E (domain or fragment, human, UniProt Q6ZW76 421-490, looked up)
chain: T1 sequence (looked up) with I35E, E52F

Columns and labels:
ANKS6 SAM (Homo sapiens) = ANKS6 SAM (Homo sapiens) (UniProt Q68DC2); conditions: cited from earlier work
Sequence of ANKS6 SAM (Homo sapiens) (Q68DC2 770-839): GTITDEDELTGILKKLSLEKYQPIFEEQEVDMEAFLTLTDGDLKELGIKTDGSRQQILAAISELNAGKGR

ANKS3 SAM F472E = biological target: T1, ANKS3 SAM F472E; test: SPR
Bicc1 SAM R924E (native) = biological target: B2; test: SPR
crystal structure = biological target: the molecule itself; test: crystal structure
Bicc1 SAM F920E = biological target: T2, Bicc1 SAM F920E; test: SEC-MALS

Kd (ANKS3 SAM F472E)	Kd (Bicc1 SAM R924E (native))	Molecule	binding result (crystal structure)	further results
		ANKS3 SAM (from UniProt Q6ZW76)		Kd (ANKS6 SAM (Homo sapiens)): 249 nM
1350 ± 100 nM	1350 ± 100 nM	B1		
		B2	binds	
1350 ± 100 nM	1350 ± 100 nM	B3		
		B4	binds	
	2200 ± 100 nM	B5		binding result (Bicc1 SAM F920E): binds
